In PMC3253312 (Steroids, 2011) one finds Km and Vmax data, which are given here for four proteins.

Substrate in this data set: C[C@]12CCC(=O)C=C1CC[C@@H]1[C@@H]2CC[C@]2(C)C(=O)CC[C@@H]12
The data set is described as follows: cells, lysate or membranes. The note with it: substrate.

Numbering of substitutions follows the chain as printed. Names may count otherwise.

B1: wild-type aromatase (Homo sapiens) (protein)
chain: MVLEMLNPIHYNITSIVPEAMPAATMPVLLLTGLFLLVWNYEGTSSIPGPGYCMGIGPLISHGRFLWMGIGSACNYYNRVYGEFMRVWISGEETLIISKSSSMFHIMKHNHYSSRFGSKLGLQCIGMHEKGIIFNNNPELWKTTRPFFMKALSGPGLVRMVTVCAESLKTHLDRLEEVTNESGYVDVLTLLRRVMLDTSNTLFLRIPLDESAIVVKIQGYFDAWQALLIKPDIFFKISWLYKKYEKSVKDLKDAIEVLIAEKRRRISTEEKLEECMDFATELILAEKRGDLTRENVNQCILEMLIAAPDTMSVSLFFMLFLIAKHPNVEEAIIKEIQTVIGERDIKIDDIQKLKVMENFIYESMRYQPVVDLVMRKALEDDVIDGYPVKKGTNIILNIGRMHRLEFFPKPNEFTLENFAKNVPYRYFQPFGFGPRGCAGKYIAMVMMKAILVTLLRRFHVKTLQGQCVESIQKIHDLSLHPDETKNMLEMIFTPRNSDRCLEH
A word on the Km: it is the concentration of substrate that gives half-maximal velocity. Broadly, the Vmax is the top rate of the reaction or transport when substrate is in excess. Turning to B1, where the note is “other: WT aromatase”, the Km amounted to 0.0273 ± 0.0025 µM and the maximal velocity (Vmax) was 5.32e-07 µmol/min/mg.

B2: aromatase M374T mutant (Homo sapiens; M374T) (protein)
chain: B1 chain with M374T
Turning to B2, where the note is “other: M374T mutant”, the Michaelis-Menten constant (Km) amounted to 0.0178 ± 0.002 µM and the Vmax came out at 4.5e-08 µmol/min/mg.

B3: aromatase W224F mutant (Homo sapiens; W224F) (protein)
chain: B1 chain with W224F
As to B3, under “other: W224F mutant”, the Km turned out to be 0.067 ± 0.0051 µM and the Vmax was determined as 1.18e-07 µmol/min/mg.

B4: aromatase F221Y mutant (Homo sapiens; F221Y) (protein)
chain: B1 chain with F221Y
In the case of B4, where the note is “other: F221Y mutant”, the Km worked out at 0.0029 ± 0.0003 µM and the Vmax worked out at 1.22e-07 µmol/min/mg.
